Reference: paper PMC12102759 (2025)

B1: AXIN1 peptide 235-250 (Axin-1), 16-mer library wild type / PP2A B56 (PPP2R5A B56 domain, residues 1-486) (parent complex)
chain 1: SGYLPTLNEDEEWKAD
chain 2: not shown

Variants of: B1
Experiment: proteomic peptide phage display deep mutational scan (ProP-PD DMS): M13 P8 16-mer library selected against immobilised GST-tagged bait for four days (rounds), NGS of the eluted pools per day and pseudo-replica; bait immobilised on MaxiSorp plates (10 µg), library pre-cleared on GST, 2 h binding at 4 °C, five washes; one round per day, days 1-4; value from days 2 and 3
With chain 1 D16G the screen value was 0.000202 average fractional NGS count over selection days 2 and 3 (reads of this peptide / all reads for the bait, averaged over …. With chain 1 D16L the screen value was 0.000211 average fractional NGS count over selection days 2 and 3 (reads of this peptide / all reads for the bait, averaged over …. With chain 1 D16M the screen value was 0.00821 average fractional NGS count over selection days 2 and 3 (reads of this peptide / all reads for the bait, averaged over …. chain 1 D16V was tested, and the screen value was 0.00077 average fractional NGS count over selection days 2 and 3 (reads of this peptide / all reads for the bait, averaged over …. In the case of chain 1 D16N, the screen value is reported as 0.000396 average fractional NGS count over selection days 2 and 3 (reads of this peptide / all reads for the bait, averaged over …. For chain 1 D16E, the screen value was 0.000288 average fractional NGS count over selection days 2 and 3 (reads of this peptide / all reads for the bait, averaged over …. For chain 1 D16H, the screen value was 0.0014 average fractional NGS count over selection days 2 and 3 (reads of this peptide / all reads for the bait, averaged over …. In the case of chain 1 L7I, the screen value is reported as 0.000349 average fractional NGS count over selection days 2 and 3 (reads of this peptide / all reads for the bait, averaged over …. In the case of chain 1 N8H, the screen value is reported as 0.000177 average fractional NGS count over selection days 2 and 3 (reads of this peptide / all reads for the bait, averaged over …. chain 1 N8F was tested, and the screen value was 0.000687 average fractional NGS count over selection days 2 and 3 (reads of this peptide / all reads for the bait, averaged over …. For chain 1 N8K, the screen value was 0.000298 average fractional NGS count over selection days 2 and 3 (reads of this peptide / all reads for the bait, averaged over …. With chain 1 N8A the screen value was 0.000156 average fractional NGS count over selection days 2 and 3 (reads of this peptide / all reads for the bait, averaged over …. chain 1 N8T was tested, and the screen value was 0.000511 average fractional NGS count over selection days 2 and 3 (reads of this peptide / all reads for the bait, averaged over …. With chain 1 N8W the screen value was 0.000126 average fractional NGS count over selection days 2 and 3 (reads of this peptide / all reads for the bait, averaged over …. chain 1 N8E was tested, and the screen value was 0.000839 average fractional NGS count over selection days 2 and 3 (reads of this peptide / all reads for the bait, averaged over …. With chain 1 N8R the screen value was 0.000829 average fractional NGS count over selection days 2 and 3 (reads of this peptide / all reads for the bait, averaged over …. In the case of chain 1 N8S, the screen value is reported as 0.000146 average fractional NGS count over selection days 2 and 3 (reads of this peptide / all reads for the bait, averaged over …. In the case of chain 1 N8Y, the screen value is reported as 0.00143 average fractional NGS count over selection days 2 and 3 (reads of this peptide / all reads for the bait, averaged over …. In the case of chain 1 N8P, the screen value is reported as 0.000473 average fractional NGS count over selection days 2 and 3 (reads of this peptide / all reads for the bait, averaged over …. chain 1 K14M was tested, and the screen value was 0.000958 average fractional NGS count over selection days 2 and 3 (reads of this peptide / all reads for the bait, averaged over …. For chain 1 K14P, the screen value was 0.000647 average fractional NGS count over selection days 2 and 3 (reads of this peptide / all reads for the bait, averaged over …. With chain 1 K14G the screen value was 0.00056 average fractional NGS count over selection days 2 and 3 (reads of this peptide / all reads for the bait, averaged over …. chain 1 K14H was tested, and the screen value was 0.00281 average fractional NGS count over selection days 2 and 3 (reads of this peptide / all reads for the bait, averaged over …. chain 1 K14W was tested, and the screen value was 0.00219 average fractional NGS count over selection days 2 and 3 (reads of this peptide / all reads for the bait, averaged over …. With chain 1 K14Y the screen value was 0.00389 average fractional NGS count over selection days 2 and 3 (reads of this peptide / all reads for the bait, averaged over …. With chain 1 K14Q the screen value was 0.00109 average fractional NGS count over selection days 2 and 3 (reads of this peptide / all reads for the bait, averaged over …. In the case of chain 1 K14R, the screen value is reported as 0.000196 average fractional NGS count over selection days 2 and 3 (reads of this peptide / all reads for the bait, averaged over …. With chain 1 K14D the screen value was 0.000812 average fractional NGS count over selection days 2 and 3 (reads of this peptide / all reads for the bait, averaged over …. In the case of chain 1 K14N, the screen value is reported as 0.000231 average fractional NGS count over selection days 2 and 3 (reads of this peptide / all reads for the bait, averaged over …. chain 1 K14L was tested, and the screen value was 0.00437 average fractional NGS count over selection days 2 and 3 (reads of this peptide / all reads for the bait, averaged over …. chain 1 A15G was tested, and the screen value was 0.000885 average fractional NGS count over selection days 2 and 3 (reads of this peptide / all reads for the bait, averaged over …. chain 1 A15P was tested, and the screen value was 0.00074 average fractional NGS count over selection days 2 and 3 (reads of this peptide / all reads for the bait, averaged over …. In the case of chain 1 A15Y, the screen value is reported as 0.000791 average fractional NGS count over selection days 2 and 3 (reads of this peptide / all reads for the bait, averaged over …. For chain 1 A15T, the screen value was 0.000294 average fractional NGS count over selection days 2 and 3 (reads of this peptide / all reads for the bait, averaged over …. With chain 1 A15N the screen value was 0.000145 average fractional NGS count over selection days 2 and 3 (reads of this peptide / all reads for the bait, averaged over …. For chain 1 A15L, the screen value was 0.00106 average fractional NGS count over selection days 2 and 3 (reads of this peptide / all reads for the bait, averaged over …. chain 1 Y3S was tested, and the screen value was 0.000173 average fractional NGS count over selection days 2 and 3 (reads of this peptide / all reads for the bait, averaged over …. For chain 1 Y3V, the screen value was 0.00041 average fractional NGS count over selection days 2 and 3 (reads of this peptide / all reads for the bait, averaged over …. chain 1 Y3L was tested, and the screen value was 0.000544 average fractional NGS count over selection days 2 and 3 (reads of this peptide / all reads for the bait, averaged over …. With chain 1 Y3F the screen value was 0.000133 average fractional NGS count over selection days 2 and 3 (reads of this peptide / all reads for the bait, averaged over …. With chain 1 G2I the screen value was 0.000957 average fractional NGS count over selection days 2 and 3 (reads of this peptide / all reads for the bait, averaged over …. chain 1 G2H was tested, and the screen value was 0.000834 average fractional NGS count over selection days 2 and 3 (reads of this peptide / all reads for the bait, averaged over …. chain 1 G2W was tested, and the screen value was 0.00074 average fractional NGS count over selection days 2 and 3 (reads of this peptide / all reads for the bait, averaged over …. chain 1 G2S was tested, and the screen value was 0.000675 average fractional NGS count over selection days 2 and 3 (reads of this peptide / all reads for the bait, averaged over …. In the case of chain 1 G2E, the screen value is reported as 0.000393 average fractional NGS count over selection days 2 and 3 (reads of this peptide / all reads for the bait, averaged over …. chain 1 G2A was tested, and the screen value was 0.00077 average fractional NGS count over selection days 2 and 3 (reads of this peptide / all reads for the bait, averaged over …. For chain 1 G2D, the screen value was 0.000338 average fractional NGS count over selection days 2 and 3 (reads of this peptide / all reads for the bait, averaged over …. chain 1 G2L was tested, and the screen value was 0.000458 average fractional NGS count over selection days 2 and 3 (reads of this peptide / all reads for the bait, averaged over …. For chain 1 E12F, the screen value was 0.000153 average fractional NGS count over selection days 2 and 3 (reads of this peptide / all reads for the bait, averaged over …. For chain 1 E12L, the screen value was 0.00045 average fractional NGS count over selection days 2 and 3 (reads of this peptide / all reads for the bait, averaged over …. With chain 1 E12P the screen value was 0.000257 average fractional NGS count over selection days 2 and 3 (reads of this peptide / all reads for the bait, averaged over …. chain 1 E12A was tested, and the screen value was 0.000112 average fractional NGS count over selection days 2 and 3 (reads of this peptide / all reads for the bait, averaged over …. chain 1 E12Q was tested, and the screen value was 0.000677 average fractional NGS count over selection days 2 and 3 (reads of this peptide / all reads for the bait, averaged over …. With chain 1 E12V the screen value was 0.000291 average fractional NGS count over selection days 2 and 3 (reads of this peptide / all reads for the bait, averaged over …. With chain 1 W13Y the screen value was 0.000277 average fractional NGS count over selection days 2 and 3 (reads of this peptide / all reads for the bait, averaged over …. With chain 1 W13M the screen value was 0.000138 average fractional NGS count over selection days 2 and 3 (reads of this peptide / all reads for the bait, averaged over …. For chain 1 W13L, the screen value was 0.000454 average fractional NGS count over selection days 2 and 3 (reads of this peptide / all reads for the bait, averaged over …. chain 1 P5Y was tested, and the screen value was 0.000222 average fractional NGS count over selection days 2 and 3 (reads of this peptide / all reads for the bait, averaged over …. In the case of chain 1 P5A, the screen value is reported as 0.00054 average fractional NGS count over selection days 2 and 3 (reads of this peptide / all reads for the bait, averaged over …. For chain 1 E11R, the screen value was 0.000311 average fractional NGS count over selection days 2 and 3 (reads of this peptide / all reads for the bait, averaged over …. For chain 1 E11S, the screen value was 0.000584 average fractional NGS count over selection days 2 and 3 (reads of this peptide / all reads for the bait, averaged over …. chain 1 E11K was tested, and the screen value was 0.000202 average fractional NGS count over selection days 2 and 3 (reads of this peptide / all reads for the bait, averaged over …. With chain 1 E11Y the screen value was 0.000271 average fractional NGS count over selection days 2 and 3 (reads of this peptide / all reads for the bait, averaged over …. With chain 1 E11F the screen value was 0.00161 average fractional NGS count over selection days 2 and 3 (reads of this peptide / all reads for the bait, averaged over …. For chain 1 E11V, the screen value was 0.000234 average fractional NGS count over selection days 2 and 3 (reads of this peptide / all reads for the bait, averaged over …. chain 1 E11Q was tested, and the screen value was 0.00516 average fractional NGS count over selection days 2 and 3 (reads of this peptide / all reads for the bait, averaged over …. For chain 1 E11A, the screen value was 0.000236 average fractional NGS count over selection days 2 and 3 (reads of this peptide / all reads for the bait, averaged over …. With chain 1 T6A the screen value was 0.000414 average fractional NGS count over selection days 2 and 3 (reads of this peptide / all reads for the bait, averaged over …. With chain 1 T6I the screen value was 0.000627 average fractional NGS count over selection days 2 and 3 (reads of this peptide / all reads for the bait, averaged over …. For chain 1 T6V, the screen value was 0.00125 average fractional NGS count over selection days 2 and 3 (reads of this peptide / all reads for the bait, averaged over …. With chain 1 D10V the screen value was 0.00335 average fractional NGS count over selection days 2 and 3 (reads of this peptide / all reads for the bait, averaged over …. For chain 1 D10T, the screen value was 0.000731 average fractional NGS count over selection days 2 and 3 (reads of this peptide / all reads for the bait, averaged over …. chain 1 D10L was tested, and the screen value was 0.000595 average fractional NGS count over selection days 2 and 3 (reads of this peptide / all reads for the bait, averaged over …. For chain 1 D10F, the screen value was 0.000124 average fractional NGS count over selection days 2 and 3 (reads of this peptide / all reads for the bait, averaged over …. With chain 1 D10M the screen value was 0.00104 average fractional NGS count over selection days 2 and 3 (reads of this peptide / all reads for the bait, averaged over ….
